# Data from patent US20150297694A1, “CANCER DIAGNOSTIC AND THERAPEUTIC METHOD TARGETING MOLECULES EXPRESSED IN CANCER STEM CELLS” (NIIGATA UNIVERSITY, priority 2012, published 2015).
# B1: DEAD/H (Asp-Glu-Ala-Asp/His) box polypeptide 3, X-linked (protein, listed as Homo sapiens)
# chain: MSHVAVENALGLDQQFAGLDLNSSDNQSGGSTASKGRYIPPHLRNREATKGFYDKDSSGWSSSKDKDAYSSFGSRSDSRGKSSFFSDRGSGSRGRFDDRGRSDYDGIGSRGDRSGFGKFERGGNSRWCDKSDEDDWSKPLPPSERLEQELFSGGNTGINFEKYDDIPVEATGNNCPPHIESFSDVEMGEIIMGNIELTRYTRPTPVQKHAIPIIKEKRDLMACAQTGSGKTAAFLLPILSQIYSDGPGEALRAMKENGRYGRRKQYPISLVLAPTRELAVQIYEEARKFSYRSRVRPCVVYGGADIGQQIRDLERGCHLLVATPGRLVDMMERGKIGLDFCKYLVLDEADRMLDMGFEPQIRRIVEQDTMPPKGVRHTMMFSATFPKEIQMLARDFLDEYIFLAVGRVGSTSENITQKVVWVEESDKRSFLLDLLNATGKDSLTLVFVETKKGADSLEDFLYHEGYACTSIHGDRSQRDREEALHQFRSGKSPILVATAVAARGLDISNVKHVINFDLPSDIEEYVHRIGRTGRVGNLGLATSFFNERNINITKDLLDLLVEAKQEVPSWLENMAYEHHYKGSSRGRSKSSRFSGGFGARDYRQSSGASSSSFSSSRASSSRSGGGGHGSSRGFGGGGYGGFYNSDGYGGNYNSQGVDWWGN
# What was measured:
# [1] = system: CD62Llow CD4-positive or CD8-positive T cells; assay: Cytokine ELISA (IFN-γ, IL-17) of CD62Llow lymph node T cells stimulated with antigen-loaded dendritic cells; format: cell-based, mice
# Description: T cells were stimulated with immobilized anti-CD3 monoclonal antibodies or antigen-pulsed BM-DCs in CM. Supernatants were harvested and assayed for IFN-γ, IL-4, and IL-17 content by a quantitative “sandwich” enzyme immunoassay using a murine IFN-γ, IL-4, and IL-17 ELISA kit (Genzyme), according to the manufacturer's protocol.
# The inventors investigated whether T cells primed with synthesized DDX3X antigen could recognize CD133-positive melanoma cells.
# The CD62L^low CD4-positive or CD8-positive T cells (1×10^5 cells) isolated from the lymph nodes were stimulated with 1×10^4 dendritic cells in 200 μl of complete medium (CM) for 48 hours in a 96-well plate. The dendritic cells used for stimulation were stimulated overnight with the same number of irradiated CD133-positive tumor cells or CD133-negative tumor cells (5,000 cGy), or synthesized DDX3X (5 μg/ml). The dendritic cells were purified with CD11c microbeads prior to co-culture.
# [2] = system: CD3-positive T cells from peripheral blood; assay: Detection of DDX3X-responding IFN-γ-producing T cells in peripheral blood (co-culture with DDX3X-pulsed dendritic cells, ELISA); format: cell-based, human; design: key to DDX3X-specific T cell: “Yes” means detection of DDX3X-specific T cells in blood; “No” means no detection of DDX3X-specific T cells in blood; settings: for DDX3X-specific T cell: DC pulsed with DDX3X 3.3 μg/ml, co-culture 24 hours, IFN-γ
# Description: Peripheral blood (15 ml) was collected after informed consent. A mononulclear cell fraction was collected by density-gradient centrifugation using Lymphoprep(trade name) (Cosmo Bio), and CD14^+ cells were isolated with CD14 microbeads and autoMACS. The CD14^+ cells were cultured with rhGM-CSF (1 ng/ml, a gift from Kirin) and rhIL-4 (10 ng/ml, R&D systems), and differentiated into dendritic cells by day 5. The dendritic cells were cultured overnight in medium containing synthesized DDX3X protein (3.3 μg/ml) or the same concentration of OVA, and CD11c-positive cells purified with CD11c microbeads and autoMACS were used as antigen-presenting cells. In order to remove naive T cells and regulatory T cells from the CD14 fraction cells, CD62L^high cells were removed by using anti-CD62L antibody (1H3)-conjugated Dynabeads. The CD62L^low CD14^− cells were cultured for 48 hours on a BD BioCoat(trade name) T cell activation plate (Becton Dickinson), and cultured for 4 days in medium containing 20 U/ml of rhIL-2 (a gift from Shionogi). FACS confirmed that 95% or more of the cells were CD3-positive T cells, and the CD3-positive T cells were used as responding cells. The responding cells (1×10^5) and antigen-presenting cells (1×10^4) were co-cultured for 24 hours in a 200-μl medium in a round-bottom 96-well plate, and the IFN-γ concentration was measured by ELISA using the supernatant collected after co-culture. Unpulsed dendritic cells, DDX3X-pulsed dendritic cells, and OVA-pulsed dendritic cells were used as the antigen-presenting cells. In Table 3, “Yes” means that IFN-γ production from T cells was confirmed with significant difference only in a co-culture with the DDX3X-pulsed dendritic cells. In the table, “% Treg” and “% Teff” represent the proportions of the regulatory T cells and the effector T cells, respectively, with respect to the total number of CD4^+ T cells as determined by the FACS analysis of the mononulclear cell fraction immediately after isolation from the peripheral blood. CD62L^high CD25^+CD4^+ T cells and CD62L^low CD4^+ T cells were used as regulatory T cells (Treg) and effector T cells (Teff), respectively, in the FACS analysis, as reported in Koyama K, Kagamu H, et al. Reciprocal CD4^+ T-cell balance of effector CD62L^low CD4^+ and CD62L^high CD25^+ CD4^+ regulatory T cells in small cell lung cancer reflects disease stage. Clin Cancer Res. 2008; 14: 6770-9. Detection of DDX3X-responding T cells was not possible in any of the healthy individuals (HV), small cell lung cancer patients with distal metastasis (SCLC-ED), and cured small cell lung cancer patients. However, the experiment found the presence of DDX3X-responding, specific IFN-γ-producing T cells in 5 of 12 small cell lung cancer (SCLC-LD) patients with no distal metastasis.
# [3] = T cells from lymph nodes draining DC pulsed with synthesized DDX3X, stimulated 48 hours with DC loaded with CD133-positive or CD133-negative tumor cells
molecule,measurement,setting,value
B1,IFN-γ and IL-17 secretion by DDX3X-specific CD4-positive T cells,[1]; [3],secreted IFN-γ and IL-17 in a melanoma CSC-specific manner
same,response of DDX3X-specific CD8-positive T cells,[1]; [3],responded to both CD133-negative and CD133-positive melanoma cells
same,cytokine production by melanoma CSC-specific CD4-positive T cells,"[1]; T cells primed with vaccinated CD133-positive melanoma cells, stimulated with DC pulsed with synthesized DDX3X (5 μg/ml)",produced cytokines in a DDX3X-specific manner
same,cytokine production upon DDX3X stimulation compared with stimulation with the melanoma CSC itself,[1]; melanoma CSC-specific CD4-positive T cells,produced even more cytokines
same,DDX3X-specific T cell,[2]; Cured SCLC subjects,No
same,DDX3X-specific T cell,[2]; HV (healthy individuals),No
same,DDX3X-specific T cell,[2]; SCLC-ED subjects,No
same,DDX3X-specific T cell,[2]; SCLC-LD subjects,Yes and No
same,detection of DDX3X-responding T cells,"[2]; healthy individuals (HV), SCLC-ED and cured small cell lung cancer patients",not possible
same,"patients with DDX3X-responding, specific IFN-γ-producing T cells",[2]; small cell lung cancer (SCLC-LD) patients with no distal metastasis,5 of 12
